This note sets out measurements from patent US20260022352A1, “COMPOSITIONS AND METHODS FOR PURIFYING […]” (North Carolina State University, priority 2023, published 2026).

This experiment deals with VSV-G-pseudo-typed lentiviral vector particles (vesicular stomatitis virus) (UniProt P03522).
Chain of UniProt P03522 (P03522 17-511): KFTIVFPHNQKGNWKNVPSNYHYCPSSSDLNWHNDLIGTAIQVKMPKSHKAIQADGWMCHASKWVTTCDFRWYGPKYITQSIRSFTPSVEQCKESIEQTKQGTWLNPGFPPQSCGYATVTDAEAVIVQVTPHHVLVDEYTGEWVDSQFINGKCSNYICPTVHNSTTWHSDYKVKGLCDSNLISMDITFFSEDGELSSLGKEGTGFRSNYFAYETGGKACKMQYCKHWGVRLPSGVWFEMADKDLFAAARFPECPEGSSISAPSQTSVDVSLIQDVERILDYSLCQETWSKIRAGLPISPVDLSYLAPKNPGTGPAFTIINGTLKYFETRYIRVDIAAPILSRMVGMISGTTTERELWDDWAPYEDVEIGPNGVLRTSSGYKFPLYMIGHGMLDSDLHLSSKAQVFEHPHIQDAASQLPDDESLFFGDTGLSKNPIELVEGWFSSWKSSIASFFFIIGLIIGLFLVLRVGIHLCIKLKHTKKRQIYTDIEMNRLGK

GKEAAFAA (peptide) showed an LVV adsorbed greater than 1e+09 TU/mL. Regarding FEKISAAE (peptide), the capacity was 5e+08 TU/mL.
